Measurements: patent publication US20190185562A1
Values belong to the binder of their own block, whether it stands above or below them.

How the values were obtained:
[1] = target: gp130 expressed endogenously on IMR-32/STAT3-Luc cells (human) (UniProt P40189); test: cell-based or functional assay
[2] = target: wild-type human GP130 on HEK293.STAT3.Luc.GP130.hLEPR reporter cells (human) (UniProt P40189); test: cell-based or functional assay
wild-type human GP130 on HEK293.STAT3.Luc.GP130.hLEPR reporter cells (human), sequence (P40189 23-918): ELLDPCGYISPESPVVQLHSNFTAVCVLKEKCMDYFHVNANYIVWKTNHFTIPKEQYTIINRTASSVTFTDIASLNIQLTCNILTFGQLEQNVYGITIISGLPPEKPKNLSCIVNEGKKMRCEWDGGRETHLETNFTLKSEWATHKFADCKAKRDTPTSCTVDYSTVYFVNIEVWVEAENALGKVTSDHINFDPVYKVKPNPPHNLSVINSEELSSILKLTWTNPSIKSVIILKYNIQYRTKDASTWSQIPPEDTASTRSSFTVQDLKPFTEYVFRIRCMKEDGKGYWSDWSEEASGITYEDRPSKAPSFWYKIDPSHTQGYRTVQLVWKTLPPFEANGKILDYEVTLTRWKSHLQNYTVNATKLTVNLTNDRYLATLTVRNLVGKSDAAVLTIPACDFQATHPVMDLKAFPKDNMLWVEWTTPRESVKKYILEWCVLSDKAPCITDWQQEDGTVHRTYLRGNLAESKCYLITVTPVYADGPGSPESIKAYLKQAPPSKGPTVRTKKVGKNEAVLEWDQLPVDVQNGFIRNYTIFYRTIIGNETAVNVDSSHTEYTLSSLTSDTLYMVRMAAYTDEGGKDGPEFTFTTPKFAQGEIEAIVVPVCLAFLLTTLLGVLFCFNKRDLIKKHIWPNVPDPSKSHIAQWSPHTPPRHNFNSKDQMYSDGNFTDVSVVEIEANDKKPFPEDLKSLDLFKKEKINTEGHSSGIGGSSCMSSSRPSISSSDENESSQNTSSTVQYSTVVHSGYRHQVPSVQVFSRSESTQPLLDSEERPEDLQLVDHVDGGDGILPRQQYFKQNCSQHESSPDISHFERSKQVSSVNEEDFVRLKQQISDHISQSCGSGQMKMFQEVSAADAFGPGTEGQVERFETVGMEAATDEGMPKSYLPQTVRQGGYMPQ

gp130 expressed endogenously on IMR-32/STAT3-Luc cells (human), sequence (P40189 23-918): as above

- EC50 of activation of IMR-32/STAT3-luc cells (STAT3-luciferase) [1]: 0.054 nM
- EC50 (M), STAT3-luciferase activation of HEK293.STAT3.Luc.GP130.hLEPR (Y1141F) cells [2]: 5.92e-10 M
- EC50 (M), STAT3-luciferase activation of HEK293.STAT3.Luc.GP130.hLEPR (a) cells [2]: 1.21e-10 M
- Percentage activation as compared to hOSM [2]: 100%
- Percentage maximum activation as compared to hOSM [2]: 100%
B1: human Oncostatin M (ligand, UniProt P13725 26-252, looked up)
chain: AAIGSCSKEYRVLLGQLQKQTDLMQDTSRLLDPYIRIQGLDVPKLREHCRERPGAFPSEETLRGLGRRGFLQTLNATLGCVLHRLADLEQRLPKAQDLERSGLNIEDLEKLQMARPNILGLRNNIYCMAQLLDNSDTAEPTKAGRGASQPPTPTPASDAFQRKLEGCRFLHGYHRFMHSVGRVFSKWGESPNRSRRHSPHQALRKGVRRTRPSRKGKRLMTRGQLPR

- EC50 of activation of IMR-32/STAT3-luc cells (STAT3-luciferase) [1]: 0.004 nM
B2: human Ciliary Neurotrophic Factor (ligand, UniProt P26441 2-200, looked up)
chain: AFTEHSPLTPHRRDLCSRSIWLARKIRSDLTALTESYVKHQGLNKNINLDSADGMPVASTDQWSELTEAERLQENLQAYRTFHVLLARLLEDQQVHFTPTEGDFHQAIHTLLLQVAAFAYQIEELMILLEYKIPRNEADGMPINVGDGGLFEKKLWGLKVLQELSQWTVRSIHDLRFISSHQTGIPARGSHYIANNKKM
